{
  "source": "patent US20250134975A1",
  "about": "“CANCER VACCINE COMPRISING EPITOPE OF C-MET AND USE THEREOF” (KOREA UNIVERSITY RESEARCH AND BUSINESS FOUNDATION, priority 2022, published 2025)",
  "molecules": {"B1": {"name": "IFN-γ: recombinant mouse IFN-γ, key cytokine of Th1 immunity (protein, UniProt P01580 23-155, looked up)", "Interferon gamma": "HGTVIESLESLNNYFNSSGIDVEEKSLFLDIWRNWQKDGDMKILQSQIISFYLRLFEVLKDNQAISNNISVIESHLITTFFSNSKAKKDAFMSIAKFEVNNPQVQRQAFNELIRVVHQLLPESSLRKRKRSRC"}},
  "key": {"[1]": {"system": "bone marrow monocytes (BMMs)", "experiment": "Osteoclastogenesis analysis in bone marrow monocytes (TRAP staining)", "type": "cell-based, C3 (1)-Tag mice", "details": "IFN-γ 50, 100 ng/mL with M-CSF 30 ng/mL and RANKL 100 ng/mL, vs positive control", "experimental": "Primary mouse bone marrow monocytes (BMMs) were isolated from the hind limb bones (two femurs and two tibiae) of 4 to 8 week-old C3 (1)-Tag mice. The mouse BMMs were flushed into a 15 ml tube via 8 ml of a serum-free 2 mM EDTA α-MEM medium. A Lymphocyte Separation Medium (LSM: MP Biomedicals: Catalog No. 50494) was dispensed into a new tube, 8 ml of the flushed BMMs were gently added thereon and centrifuged at 1600 rpm for 20 minutes at room temperature. The isolated BMMs were inoculated at 3×10^5 cells/well in a 48-well plate with 0.5 mL of a medium per well and incubated in α-MEM containing 10% FBS and 1% antibiotics.\nBMMs in a negative control group were treated with M-CSF (30 ng/mL), BMMs in a positive control group were treated with M-CSF and RANKL (100 ng/mL), and BMMs in an experimental group were stimulated by treatment with M-CSF, RANKL, and IFN-γ (50, 100 ng/mL). On days 1, 3, 5, and 7 of culture, the medium was replaced, and each experimental group was treated with M-CSF, RANKL, and IFN-γ. After 9 days of culture, staining was performed using a TRAP staining kit (KT-008, KAMIYA biomedical company, Seattle, WA, USA) after fixing the cells with 10% formalin. For each well, TRAP-positive (TRAP^+) multinucleated cells (TRAP^+ MNC) were counted. All the experiments were independently repeated three times."}, "[2]": {"system": "M6-bone cells", "experiment": "Western blot of IFN-γ-treated cells", "type": "cell-based, mouse", "details": "100 ng/ml IFN-γ, 18 hours", "experimental": "M6 and M6-bone cells were stimulated with 100 ng/ml recombinant mouse IFN-γ and cultured in a medium containing 1% FBS for 18 hours. The cells were lysed in a buffered mixture of a PRO-PREP™ protein extraction solution (iNtRON Biotechnology, 17081) and a phosphatase inhibitor cocktail (Gen DEPOT, p3200-001). Protein concentration was measured using the Bradford assay (Bio-rad, 500-0006, Hercules, CA, USA). 30 μg of the protein was separated by SDS-polyacrylamide gel electrophoresis and transferred to a PVDF membrane (10600023), and then the membrane was blocked with Tris-buffered saline containing 0.05% Tween 20 and 5% non-fat milk powder for 1 hour. The PVDF membrane was incubated overnight at 4° C. with primary antibodies. HIF1α (NB100-105, Novusbio), c-MET, Akt (Cat #9272), and p-Akt (Cat #9271) antibodies were purchased from Cell Signaling Technology (Beverly, MA, USA), and β-actin (Cat #A5316) was purchased from Sigma (Saint Louis, MO, USA). Subsequently, a horseradish peroxidase-conjugated secondary antibody was cultured at room temperature for 1 hour. Immunoreactive bands were detected with a chemiluminescent reagent (Cat #RPN2106)."}},
  "note": "“Also recorded” adds a separate entry of the source.",
  "data": [
    {"molecule": "B1", "values": [
      {"measurement": "M-CSF and RANKL-induced osteoclastogenesis", "setting": "[1]", "result": "completely inhibited osteoclastogenesis; also recorded: inhibits"},
      {"measurement": "expression of c-MET and p-Akt (Western blot)", "setting": "[2]", "result": "decreased"}
    ]}
  ]
}
